According to patent publication US20080175878:

What was measured:
[1] = biological target: blood clotting factor V, P12259
[2] = biological target: blood clotting factor VIII, P00451
[3] = biological target: single chain urokinase plasminogen activator, P00749
[4] = biological target: single chain tissue plasminogen activator, P00750
[5] = biological target: T1, blood clotting factor VII, P08709
T1 chain: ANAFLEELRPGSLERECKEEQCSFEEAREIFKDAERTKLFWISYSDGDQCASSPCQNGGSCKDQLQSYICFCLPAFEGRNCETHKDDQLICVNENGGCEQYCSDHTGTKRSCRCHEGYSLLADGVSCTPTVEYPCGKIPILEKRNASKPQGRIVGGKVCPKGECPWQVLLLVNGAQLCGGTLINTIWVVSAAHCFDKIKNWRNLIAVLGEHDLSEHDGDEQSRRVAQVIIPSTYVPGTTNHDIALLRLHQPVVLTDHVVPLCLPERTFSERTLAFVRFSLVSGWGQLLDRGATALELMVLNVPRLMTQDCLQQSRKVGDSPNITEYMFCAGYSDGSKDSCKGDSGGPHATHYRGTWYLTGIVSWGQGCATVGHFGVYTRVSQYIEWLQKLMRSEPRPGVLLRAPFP

Chain of single chain tissue plasminogen activator, P00750 (P00750 36-562): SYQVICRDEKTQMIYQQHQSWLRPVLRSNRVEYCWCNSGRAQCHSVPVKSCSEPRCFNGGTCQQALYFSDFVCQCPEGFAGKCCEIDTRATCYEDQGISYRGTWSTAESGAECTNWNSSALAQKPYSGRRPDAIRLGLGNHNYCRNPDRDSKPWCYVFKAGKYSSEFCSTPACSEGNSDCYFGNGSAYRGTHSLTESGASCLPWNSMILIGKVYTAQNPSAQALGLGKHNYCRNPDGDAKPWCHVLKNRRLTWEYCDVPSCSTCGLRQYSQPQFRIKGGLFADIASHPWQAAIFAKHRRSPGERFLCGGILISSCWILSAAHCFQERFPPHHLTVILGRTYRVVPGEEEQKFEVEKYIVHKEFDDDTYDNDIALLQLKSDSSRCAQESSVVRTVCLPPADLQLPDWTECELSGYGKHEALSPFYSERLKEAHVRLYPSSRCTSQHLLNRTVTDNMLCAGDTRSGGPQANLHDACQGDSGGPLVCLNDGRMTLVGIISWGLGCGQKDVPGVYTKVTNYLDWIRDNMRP
Chain of blood clotting factor V, P12259 (P12259 29-2224): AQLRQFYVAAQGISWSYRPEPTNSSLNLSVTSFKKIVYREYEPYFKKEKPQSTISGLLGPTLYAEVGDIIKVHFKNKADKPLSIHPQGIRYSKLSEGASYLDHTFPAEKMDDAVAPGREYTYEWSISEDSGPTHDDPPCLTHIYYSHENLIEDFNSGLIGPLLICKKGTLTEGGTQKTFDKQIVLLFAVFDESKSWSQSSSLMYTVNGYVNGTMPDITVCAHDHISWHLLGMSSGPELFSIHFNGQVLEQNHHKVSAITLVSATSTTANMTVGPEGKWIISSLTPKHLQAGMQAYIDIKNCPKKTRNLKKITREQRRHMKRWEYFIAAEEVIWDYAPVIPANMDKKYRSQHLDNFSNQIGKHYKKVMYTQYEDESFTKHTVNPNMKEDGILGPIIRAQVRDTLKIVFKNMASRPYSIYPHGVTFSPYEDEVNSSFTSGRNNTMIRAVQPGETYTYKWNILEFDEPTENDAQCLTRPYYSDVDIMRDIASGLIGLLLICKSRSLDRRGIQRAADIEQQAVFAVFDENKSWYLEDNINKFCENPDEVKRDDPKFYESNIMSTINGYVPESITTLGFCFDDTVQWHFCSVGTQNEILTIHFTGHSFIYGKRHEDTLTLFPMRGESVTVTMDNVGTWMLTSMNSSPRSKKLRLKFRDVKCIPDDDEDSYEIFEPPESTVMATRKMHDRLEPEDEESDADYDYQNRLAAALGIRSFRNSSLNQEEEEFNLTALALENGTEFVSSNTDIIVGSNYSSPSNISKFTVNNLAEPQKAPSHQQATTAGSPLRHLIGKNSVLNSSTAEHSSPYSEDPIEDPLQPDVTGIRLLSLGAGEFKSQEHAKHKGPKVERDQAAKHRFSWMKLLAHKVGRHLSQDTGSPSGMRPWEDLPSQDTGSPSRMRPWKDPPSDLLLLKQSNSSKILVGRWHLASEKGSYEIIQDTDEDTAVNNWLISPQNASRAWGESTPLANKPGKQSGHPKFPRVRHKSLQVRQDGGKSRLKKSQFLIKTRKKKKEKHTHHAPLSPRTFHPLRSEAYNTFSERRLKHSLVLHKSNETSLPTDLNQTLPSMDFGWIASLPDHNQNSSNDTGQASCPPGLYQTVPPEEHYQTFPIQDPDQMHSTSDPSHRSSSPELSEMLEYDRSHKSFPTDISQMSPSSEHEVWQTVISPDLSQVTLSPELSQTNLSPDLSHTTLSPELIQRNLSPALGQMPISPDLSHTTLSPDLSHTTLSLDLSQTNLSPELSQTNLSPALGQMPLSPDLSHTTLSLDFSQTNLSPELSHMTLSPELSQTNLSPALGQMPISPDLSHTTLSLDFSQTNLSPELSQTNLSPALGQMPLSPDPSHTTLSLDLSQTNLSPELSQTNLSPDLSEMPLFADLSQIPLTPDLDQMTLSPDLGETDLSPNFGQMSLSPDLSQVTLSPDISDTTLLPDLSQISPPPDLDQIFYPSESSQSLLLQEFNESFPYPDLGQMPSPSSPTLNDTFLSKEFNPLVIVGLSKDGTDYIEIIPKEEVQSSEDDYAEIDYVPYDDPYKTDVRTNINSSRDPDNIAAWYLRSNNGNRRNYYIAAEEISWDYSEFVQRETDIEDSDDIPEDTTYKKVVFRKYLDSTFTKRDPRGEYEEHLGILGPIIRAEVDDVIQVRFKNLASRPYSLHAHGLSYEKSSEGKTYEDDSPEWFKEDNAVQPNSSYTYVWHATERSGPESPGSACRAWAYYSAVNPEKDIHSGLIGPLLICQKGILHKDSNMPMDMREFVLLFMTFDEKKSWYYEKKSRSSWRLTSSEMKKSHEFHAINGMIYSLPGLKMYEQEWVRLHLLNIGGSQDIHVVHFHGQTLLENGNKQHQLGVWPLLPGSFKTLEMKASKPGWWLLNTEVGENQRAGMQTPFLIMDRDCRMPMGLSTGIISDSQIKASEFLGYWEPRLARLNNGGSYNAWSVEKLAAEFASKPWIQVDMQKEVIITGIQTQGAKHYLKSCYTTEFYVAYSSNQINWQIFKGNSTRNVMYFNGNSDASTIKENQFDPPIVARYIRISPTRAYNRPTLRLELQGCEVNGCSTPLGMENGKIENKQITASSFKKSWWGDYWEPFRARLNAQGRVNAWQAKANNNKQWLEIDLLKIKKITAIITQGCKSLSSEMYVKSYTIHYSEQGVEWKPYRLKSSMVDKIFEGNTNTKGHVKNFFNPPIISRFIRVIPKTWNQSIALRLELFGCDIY
Chain of blood clotting factor VIII, P00451 (P00451 whole entry, looked up): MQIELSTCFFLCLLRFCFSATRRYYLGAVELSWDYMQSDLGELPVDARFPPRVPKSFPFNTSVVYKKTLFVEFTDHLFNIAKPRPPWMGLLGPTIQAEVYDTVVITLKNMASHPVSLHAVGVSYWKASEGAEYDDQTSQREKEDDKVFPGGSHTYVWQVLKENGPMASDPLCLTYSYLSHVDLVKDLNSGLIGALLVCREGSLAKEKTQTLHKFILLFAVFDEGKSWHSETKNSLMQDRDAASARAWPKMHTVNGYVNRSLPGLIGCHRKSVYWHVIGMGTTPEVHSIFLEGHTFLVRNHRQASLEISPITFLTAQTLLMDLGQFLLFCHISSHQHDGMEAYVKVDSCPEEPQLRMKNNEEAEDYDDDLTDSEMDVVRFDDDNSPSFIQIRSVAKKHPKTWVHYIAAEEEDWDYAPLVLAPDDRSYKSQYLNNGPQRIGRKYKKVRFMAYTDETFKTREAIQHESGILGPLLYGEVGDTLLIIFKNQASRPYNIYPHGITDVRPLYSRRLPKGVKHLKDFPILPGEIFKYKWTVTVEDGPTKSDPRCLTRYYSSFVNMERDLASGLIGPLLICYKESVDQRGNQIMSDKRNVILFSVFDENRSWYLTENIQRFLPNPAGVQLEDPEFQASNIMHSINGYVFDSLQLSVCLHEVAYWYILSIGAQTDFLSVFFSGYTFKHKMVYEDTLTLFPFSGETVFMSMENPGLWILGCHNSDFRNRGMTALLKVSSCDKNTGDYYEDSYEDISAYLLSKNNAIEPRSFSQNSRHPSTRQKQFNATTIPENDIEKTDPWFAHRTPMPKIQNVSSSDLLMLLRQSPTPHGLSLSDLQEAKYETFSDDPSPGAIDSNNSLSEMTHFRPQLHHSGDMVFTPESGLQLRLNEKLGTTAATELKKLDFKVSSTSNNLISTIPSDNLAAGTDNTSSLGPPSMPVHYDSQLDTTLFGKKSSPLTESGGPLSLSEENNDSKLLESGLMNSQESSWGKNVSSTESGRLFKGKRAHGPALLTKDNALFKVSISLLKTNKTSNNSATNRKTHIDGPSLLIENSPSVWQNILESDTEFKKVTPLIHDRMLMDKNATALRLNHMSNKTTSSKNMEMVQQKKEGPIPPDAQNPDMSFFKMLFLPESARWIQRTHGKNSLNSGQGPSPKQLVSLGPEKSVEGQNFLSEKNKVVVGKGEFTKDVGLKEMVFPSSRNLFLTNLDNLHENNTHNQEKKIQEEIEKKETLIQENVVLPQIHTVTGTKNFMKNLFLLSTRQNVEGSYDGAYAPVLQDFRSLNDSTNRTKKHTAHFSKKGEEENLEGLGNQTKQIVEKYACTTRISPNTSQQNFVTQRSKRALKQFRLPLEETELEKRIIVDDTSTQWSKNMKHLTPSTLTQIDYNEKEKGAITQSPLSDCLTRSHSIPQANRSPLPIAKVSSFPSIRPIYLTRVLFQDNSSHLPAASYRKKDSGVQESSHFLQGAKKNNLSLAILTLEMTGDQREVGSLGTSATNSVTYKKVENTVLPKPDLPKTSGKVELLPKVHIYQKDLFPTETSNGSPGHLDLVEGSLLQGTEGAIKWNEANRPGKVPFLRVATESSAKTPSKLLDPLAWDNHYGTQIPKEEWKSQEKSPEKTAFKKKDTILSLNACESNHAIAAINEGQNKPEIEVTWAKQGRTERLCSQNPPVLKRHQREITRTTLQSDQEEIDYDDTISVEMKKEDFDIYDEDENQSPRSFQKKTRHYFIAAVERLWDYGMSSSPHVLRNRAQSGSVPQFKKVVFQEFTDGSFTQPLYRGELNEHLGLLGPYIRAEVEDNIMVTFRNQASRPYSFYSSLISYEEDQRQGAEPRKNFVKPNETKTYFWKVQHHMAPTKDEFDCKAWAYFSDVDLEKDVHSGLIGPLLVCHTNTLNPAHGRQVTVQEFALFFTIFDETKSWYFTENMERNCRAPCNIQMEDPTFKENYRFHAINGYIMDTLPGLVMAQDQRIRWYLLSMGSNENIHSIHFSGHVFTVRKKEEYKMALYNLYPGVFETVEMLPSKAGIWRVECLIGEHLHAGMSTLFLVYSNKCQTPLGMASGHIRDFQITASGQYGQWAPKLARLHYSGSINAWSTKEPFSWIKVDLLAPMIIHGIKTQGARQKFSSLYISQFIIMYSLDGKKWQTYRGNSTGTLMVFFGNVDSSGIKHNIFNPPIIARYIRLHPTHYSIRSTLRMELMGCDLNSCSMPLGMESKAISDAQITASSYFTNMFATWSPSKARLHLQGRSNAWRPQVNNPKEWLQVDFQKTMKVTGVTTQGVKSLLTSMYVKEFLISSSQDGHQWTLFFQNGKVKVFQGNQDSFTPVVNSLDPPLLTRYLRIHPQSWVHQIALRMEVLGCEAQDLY

B1: protease for activating the blood clotting factor VII (protein)
chain 1: LLESLDPDWTPDQYDYSYEDYNQEENTSSTLTHAENPDWYYTEDQADPCQPNPCEHGGDCLVHGSTFTCSCLAPFSGNKCQKVQNTCKDNPCGRGQCLITQSPPYYRCVCKHPYTGPSCSQVVPVCRPNPCQNGATCSRHKRRSKFTCACPDQFKGKFCEIGSDDCYVGDGYSYRGKMNRTVNQHACLYWNSHLLLQENYNMFMEDAETHGIGEHNFCRNPDADEKPWCFIKVTNDKVKWEYCDVSACSAQDVAYPEESPTEPSTKLPGFDSCGKTEIAERKIKR
chain 2: not shown
[1]
  Residual FV activity, protease 10 µg/ml, incubation 20 min: 100
  Residual FV activity, protease 10 µg/ml, incubation column headed 0 (min): 93
  Residual FV activity, protease 10 µg/ml, incubation column headed 0 (min), second column: 91
  Residual FV activity, protease 30 µg/ml, incubation 20 min: 28
  Residual FV activity, protease 30 µg/ml, incubation column headed 0 (min): 100
  Residual FV activity, protease 30 µg/ml, incubation column headed 0 (min), second column: 93
  Residual FV activity, protease 100 µg/ml, incubation 20 min: 13
  Residual FV activity, protease 100 µg/ml, incubation column headed 0 (min): 100
  Residual FV activity, protease 100 µg/ml, incubation column headed 0 (min), second column: 29
[2]
  FVIII activity (% of control without protease), FVIII essentially free of vWF, protease 10 µg/ml, CaCl2, 0 min: 97%
  FVIII activity (% of control without protease), FVIII essentially free of vWF, protease 10 µg/ml, CaCl2, 5 min: 27%
  FVIII activity (% of control without protease), FVIII essentially free of vWF, protease 10 µg/ml, CaCl2, 10 min: 11%
  FVIII activity (% of control without protease), FVIII essentially free of vWF, protease 10 µg/ml, CaCl2, 20 min: < 1%
  FVIII activity (% of control without protease), FVIII solution containing vWF, protease 10 µg/ml, CaCl2, 0 min: 98%
  FVIII activity (% of control without protease), FVIII solution containing vWF, protease 10 µg/ml, CaCl2, 5 min: 16%
  FVIII activity (% of control without protease), FVIII solution containing vWF, protease 10 µg/ml, CaCl2, 10 min: 14%
  FVIII activity (% of control without protease), FVIII solution containing vWF, protease 10 µg/ml, CaCl2, 20 min: 1%
  residual active FVIII (chromogenic FVIII test), 10 min, protease 0.1, 1 and 10 µg/ml: As the protease concentration increased, correspondingly more FVIII was inactivated
  residual active FVIII (chromogenic FVIII test), protease 10 µg/ml, incubation time varied: A marked reduction in the residual concentration of active FVIII was seen as the length of incubation increased
  share of FVIII spared from the protease at calcium below 0.5 mM: the percentage spared is more than 60%
  share of FVIII spared from the protease at calcium below 1 mM: approx. 50% of the FVIII is then spared
[3]
  Resulting PA activity (S-2444), no stimulant, 2 min, FVII activator 2 µg/ml: 25 Δ mIU/min
  Resulting PA activity (S-2444), no stimulant, 2 min, FVII activator 5 µg/ml: 60 Δ mIU/min
  Resulting PA activity (S-2444), no stimulant, 2 min, FVII activator 10 µg/ml: 117 Δ mIU/min
  Resulting PA activity (S-2444), no stimulant, 5 min, FVII activator 2 µg/ml: 79 Δ mIU/min
  Resulting PA activity (S-2444), no stimulant, 5 min, FVII activator 5 µg/ml: 179 Δ mIU/min
  Resulting PA activity (S-2444), no stimulant, 5 min, FVII activator 10 µg/ml: 165 Δ mIU/min
  Resulting PA activity (S-2444), no stimulant, 10 min, FVII activator 2 µg/ml: 186 Δ mIU/min
  Resulting PA activity (S-2444), no stimulant, 10 min, FVII activator 5 µg/ml: 449 Δ mIU/min
  Resulting PA activity (S-2444), no stimulant, 10 min, FVII activator 10 µg/ml: 517 Δ mIU/min
  Resulting PA activity (S-2444), stimulant CaCl2, 2 min, FVII activator 2 µg/ml: 255 Δ mIU/min
  Resulting PA activity (S-2444), stimulant CaCl2, 2 min, FVII activator 5 µg/ml: 370 Δ mIU/min
  Resulting PA activity (S-2444), stimulant CaCl2, 2 min, FVII activator 10 µg/ml: 401 Δ mIU/min
  Resulting PA activity (S-2444), stimulant CaCl2, 5 min, FVII activator 2 µg/ml: 338 Δ mIU/min
  Resulting PA activity (S-2444), stimulant CaCl2, 5 min, FVII activator 5 µg/ml: 424 Δ mIU/min
  Resulting PA activity (S-2444), stimulant CaCl2, 5 min, FVII activator 10 µg/ml: 438 Δ mIU/min
  Resulting PA activity (S-2444), stimulant CaCl2, 10 min, FVII activator 2 µg/ml: 416 Δ mIU/min
  Resulting PA activity (S-2444), stimulant CaCl2, 10 min, FVII activator 5 µg/ml: 445 Δ mIU/min
  Resulting PA activity (S-2444), stimulant CaCl2, 10 min, FVII activator 10 µg/ml: 448 Δ mIU/min
  Resulting PA activity (S-2444), stimulant heparin, 2 min, FVII activator 2 µg/ml: 190 Δ mIU/min
  Resulting PA activity (S-2444), stimulant heparin, 2 min, FVII activator 5 µg/ml: 332 Δ mIU/min
  Resulting PA activity (S-2444), stimulant heparin, 2 min, FVII activator 10 µg/ml: 425 Δ mIU/min
  Resulting PA activity (S-2444), stimulant heparin, 5 min, FVII activator 2 µg/ml: 330 Δ mIU/min
  Resulting PA activity (S-2444), stimulant heparin, 5 min, FVII activator 5 µg/ml: 455 Δ mIU/min
  Resulting PA activity (S-2444), stimulant heparin, 5 min, FVII activator 10 µg/ml: 458 Δ mIU/min
  Resulting PA activity (S-2444), stimulant heparin, 10 min, FVII activator 2 µg/ml: 417 Δ mIU/min
  Resulting PA activity (S-2444), stimulant heparin, 10 min, FVII activator 5 µg/ml: 462 Δ mIU/min
  Resulting PA activity (S-2444), stimulant heparin, 10 min, FVII activator 10 µg/ml: 460 Δ mIU/min
[4]
  PA activity (S-2444), 20 min at 37° C., heparin 100 IU/ml, FVII activator 50 µg/ml: 33.6 Δ mIU/min
  PA activity (S-2444), 20 min at 37° C., heparin 100 IU/ml, FVII activator 100 µg/ml: 51 Δ mIU/min
  PA activity (S-2444), 20 min at 37° C., heparin 100 IU/ml, FVII activator 200 µg/ml: 71.9 Δ mIU/min
  PA activity (S-2444), 20 min at 37° C., stimulant: CaCl2: 25.3 Δ mIU/min
  PA activity (S-2444), 20 min at 37° C., stimulant: heparin: 63.8 Δ mIU/min
  PA activity (S-2444), 20 min at 37° C., stimulant: none: 5.9 Δ mIU/min
  Resulting PA activity (S-2444), sctPA 100 µg/ml, incubation 1 min (FVII activator concentration not given): 10.2 Δ mIU/min
  Resulting PA activity (S-2444), sctPA 100 µg/ml, incubation 2 min (FVII activator concentration not given): 16.8 Δ mIU/min
  Resulting PA activity (S-2444), sctPA 100 µg/ml, incubation 5 min (FVII activator concentration not given): 38.8 Δ mIU/min
  Resulting PA activity (S-2444), sctPA 100 µg/ml, incubation 10 min (FVII activator concentration not given): 60.2 Δ mIU/min
  Resulting PA activity (S-2444), sctPA 100 µg/ml, incubation 20 min (FVII activator concentration not given): 73.3 Δ mIU/min
[5]
  FVII activation factor (x control), protease solution diluted 1:5, 5 min at RT (x times control): 2.6
  FVII activation factor (x control), protease solution diluted 1:10, 5 min at RT (x times control): 2
  FVII activation factor (x control), protease solution diluted 1:20, 5 min at RT (x times control): 1.6
  FVII activation factor, 0.2 IU FVII/ml + 1:10 protease solution, incubation 0 min (x times control): 1
  FVII activation factor, 0.2 IU FVII/ml + 1:10 protease solution, incubation 2.5 min (x times control): 1.3
  FVII activation factor, 0.2 IU FVII/ml + 1:10 protease solution, incubation 5.0 min (x times control): 2
  FVII activation factor, 0.2 IU FVII/ml + 1:10 protease solution, incubation 10.0 min (x times control): 2.8
  FVII activation factor, 0.2 IU FVII/ml + 1:10 protease solution, incubation 40.0 min (x times control): < 3.8
  FVIIa content (Staclot FVIIa-rTF test) after protease + FVII, 10 min, then aprotinin: 18 mlU of FVIIa/ml
  FVIIa formed by the action of the protease, after subtracting the base value: 8 mlU of FVIIa/ml have therefore been formed by the action of the protease
